Measurements as given in paper PMC7891936.

Biological target: Recombinant human cartilage oligomeric matrix protein (COMP) (human) (UniProt P49747)
Experiment: atomic force microscopy

Sequence of Recombinant human cartilage oligomeric matrix protein (COMP), P49747 21-757 (natural protein; other documents disagree on this pair) (P49747 21-757): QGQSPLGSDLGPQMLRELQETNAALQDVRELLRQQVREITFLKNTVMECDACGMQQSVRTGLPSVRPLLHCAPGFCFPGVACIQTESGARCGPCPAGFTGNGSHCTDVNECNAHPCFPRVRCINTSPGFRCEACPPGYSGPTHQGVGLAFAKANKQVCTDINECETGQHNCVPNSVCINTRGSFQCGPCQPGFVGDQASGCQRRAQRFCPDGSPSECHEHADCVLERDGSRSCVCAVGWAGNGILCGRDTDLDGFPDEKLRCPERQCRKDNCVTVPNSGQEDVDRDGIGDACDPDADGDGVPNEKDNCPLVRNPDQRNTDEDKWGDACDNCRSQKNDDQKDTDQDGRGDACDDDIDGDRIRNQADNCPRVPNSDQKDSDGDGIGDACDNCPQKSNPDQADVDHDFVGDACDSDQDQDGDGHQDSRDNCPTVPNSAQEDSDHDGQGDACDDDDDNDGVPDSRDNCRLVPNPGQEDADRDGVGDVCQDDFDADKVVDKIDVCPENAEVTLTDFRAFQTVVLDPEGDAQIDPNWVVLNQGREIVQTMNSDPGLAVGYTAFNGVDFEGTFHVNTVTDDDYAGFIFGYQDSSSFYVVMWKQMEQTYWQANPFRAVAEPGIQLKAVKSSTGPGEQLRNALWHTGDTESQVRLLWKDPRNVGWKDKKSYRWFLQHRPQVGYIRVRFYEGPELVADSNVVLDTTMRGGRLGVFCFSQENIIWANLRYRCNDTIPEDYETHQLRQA

Recombinant human cartilage oligomeric matrix protein (COMP), P49747 21-757 (natural protein; other documents disagree on this pair)
stoichiometry N: 5
